According to patent US20260250318A1, “COMPOSITIONS AND METHODS FOR CROSSING THE BLOOD BRAIN BARRIER” (VOYAGER THERAPEUTICS, INC., priority 2022, published 2026):
Numbering of substitutions follows the chain as printed. “And” between values parts separate entries of the source, which are not always exact repeats. Equal entries are not always repeated. Where two headings read alike, the source gives them in different places.

Assays:
[1] = molecular target: T1, human ALPL expressed on cells (alkaline phosphatase tissue-nonspecific isozyme, NM_000478.4) (human, UniProt P05186 18-501); experiment: binding/internalization: AAV incubated 2 or 3 h with ALPL transfected HEK 293T cells, washed, viral genomes quantified
T1 construct: also called ALPL receptor; human ALPL protein (NM_000478.6)
T1 sequence: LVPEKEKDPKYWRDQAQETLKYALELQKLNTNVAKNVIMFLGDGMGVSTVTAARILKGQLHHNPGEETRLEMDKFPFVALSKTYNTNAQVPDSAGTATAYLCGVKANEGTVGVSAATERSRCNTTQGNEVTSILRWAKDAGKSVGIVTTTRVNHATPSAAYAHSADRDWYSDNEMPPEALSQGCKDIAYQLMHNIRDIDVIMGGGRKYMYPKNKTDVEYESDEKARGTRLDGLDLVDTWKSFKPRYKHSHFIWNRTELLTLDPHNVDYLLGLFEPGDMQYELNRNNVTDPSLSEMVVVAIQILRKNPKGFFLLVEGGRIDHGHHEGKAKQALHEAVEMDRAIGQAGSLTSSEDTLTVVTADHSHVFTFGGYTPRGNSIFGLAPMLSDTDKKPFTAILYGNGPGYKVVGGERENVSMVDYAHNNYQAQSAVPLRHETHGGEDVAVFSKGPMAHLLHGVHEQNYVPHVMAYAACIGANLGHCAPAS

[2] = molecular target: T1, human ALPL expressed on cells (alkaline …); experiment: cell-based or functional assay
[3] = molecular target: T1, human ALPL expressed on cells (alkaline …); experiment: cell-based or functional assay; remark: listed apart in the source
[4] = molecular target: T1, human ALPL expressed on cells (alkaline …); experiment: cell-based or functional assay; remark: listed apart in the source
[5] = molecular target: T2, murine ALPL ortholog expressed on HEK 293T cells (NM_001287172.1) (mouse, UniProt P09242 18-501); experiment: cell-based or functional assay
T2 sequence: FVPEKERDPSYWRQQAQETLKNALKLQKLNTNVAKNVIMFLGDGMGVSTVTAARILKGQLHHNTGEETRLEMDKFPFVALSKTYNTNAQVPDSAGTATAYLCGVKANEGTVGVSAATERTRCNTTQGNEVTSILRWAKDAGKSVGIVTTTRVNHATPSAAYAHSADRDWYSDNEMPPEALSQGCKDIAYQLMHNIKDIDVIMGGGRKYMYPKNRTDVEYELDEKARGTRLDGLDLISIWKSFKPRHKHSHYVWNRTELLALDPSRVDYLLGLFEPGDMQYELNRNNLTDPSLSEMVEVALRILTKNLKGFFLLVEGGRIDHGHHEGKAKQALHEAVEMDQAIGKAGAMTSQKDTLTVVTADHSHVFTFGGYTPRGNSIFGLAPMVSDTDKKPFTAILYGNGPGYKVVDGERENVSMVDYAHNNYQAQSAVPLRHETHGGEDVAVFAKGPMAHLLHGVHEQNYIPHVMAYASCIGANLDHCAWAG

[6] = molecular target: T3, His-tagged ALPL (recombinant, soluble; SPR, BLI and ELISA of Examples 8 and 13) (UniProt P05186 18-502)
T3 sequence: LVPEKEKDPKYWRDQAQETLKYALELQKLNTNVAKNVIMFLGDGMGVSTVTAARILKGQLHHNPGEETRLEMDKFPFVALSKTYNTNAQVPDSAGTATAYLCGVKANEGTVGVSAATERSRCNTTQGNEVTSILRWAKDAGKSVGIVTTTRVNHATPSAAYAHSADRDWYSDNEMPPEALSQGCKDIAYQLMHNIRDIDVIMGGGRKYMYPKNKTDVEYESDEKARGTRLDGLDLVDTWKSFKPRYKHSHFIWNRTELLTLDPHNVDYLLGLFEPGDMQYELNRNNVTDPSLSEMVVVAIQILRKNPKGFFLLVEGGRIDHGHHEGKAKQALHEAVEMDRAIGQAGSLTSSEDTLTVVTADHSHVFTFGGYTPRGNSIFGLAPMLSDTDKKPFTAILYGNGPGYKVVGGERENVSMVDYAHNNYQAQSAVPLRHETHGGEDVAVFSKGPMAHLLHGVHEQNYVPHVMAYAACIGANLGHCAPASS

ALPL = molecular target: T4, ALPL (Homo sapiens, UniProt P05186); experiment: Transcytosis assay of AAV particles in MDCK cells engineered to overexpress ALPL; assay type: cell-based; design: expressed in transfected cells; host or cells: MDCK (Madin-Darby Canine Kidney) cells; conditions: qPCR of bottom chamber
T4 sequence (P05186 18-501): T1 sequence

His-tagged ALPL = molecular target: T5, His-tagged ALPL (Homo sapiens, UniProt P05186); experiment: SPR pH dependence of capsid-ALPL interaction; assay type: binding; conditions: association at pH 7.4, dissociation at pH 7.4 or 5.5
T5 sequence (P05186 18-501): T1 sequence
Description: The TTM-002 capsid variant was immobilized on the CM5 sensor chip. His-tagged ALPL and buffer was then passed over the AAV9 control or TTM-002 capsid variant to monitor the rate of association at pH 7.4 and dissociation, respectively, at a pH of 7.4 (FIG. 3A) or a pH of 5.5 (FIG. 3B).

[7] = molecular target: T6, library of over 5,500 cDNAs overexpressed in human cells (ALPL) (Homo sapiens, UniProt P05186); experiment: Cell binding array assay for receptor identification; conditions: detected with anti-AAV9 antibody
T6 construct: expressed in transfected cells
T6 sequence (P05186 18-501): T1 sequence
Description: A cell binding array assay was then used to identify a receptor for the TTM-001 and TTM-002 capsid variants. Briefly, a library of over 5,500 cDNAs was overexpressed in human cells. Cells were contacted with a test ligand, e.g., AAV viral particles comprising a TTM-001 capsid variant or an AAV9 control capsid, which was applied to the array. Binding of the TTM-001 capsid variant or the AAV9 control capsid to the cells was detected using an anti-AAV9 antibody followed by a labeled anti-IgG detection antibody. […] This interacting protein was identified as the GPI-anchored protein, alkaline phosphatase issue-nonspecific isozyme (NM_000478.4, which is incorporated by reference herein) (ALPL). ALPL is part of a family of membrane-bound glycoproteins that hydrolyze monophosphate esters at a high pH (see, e.g., Weiss et al., Isolation and characterization of a cDNA encoding a human liver/bone/kidney-type alkaline phosphatase. Proc. Natl. Acad. Sci., 83:7182-7186 (1986), the contents of which are hereby incorporated by reference in their entirety).

B1: TTM-002 capsid variant (AAV particle comprising the TTM-002 AAV9 capsid variant) (other)
chain 1: MAADGYLPDWLEDNLSEGIREWWALKPGAPQPKANQQHQDNARGLVLPGYKYLGPGNGLDKGEPVNAADAAALEHDKAYDQQLKAGDNPYLKYNHADAEFQERLKEDTSFGGNLGRAVFQAKKRLLEPLGLVEEAAKTAPGKKRPVEQSPQEPDSSAGIGKSGAQPAKKRLNFGQTGDTESVPDPQPIGEPPAAPSGVGSLTMASGGGAPVADNNEGADGVGSSSGNWHCDSQWLGDRVITTSTRTWALPTYNNHLYKQISNSTSGGSSNDNAYFGYSTPWGYFDFNRFHCHFSPRDWQRLINNNWGFRPKRLNFKLFNIQVKEVTDNNGVKTIANNLTSTVQVFTDSDYQLPYVLGSAHEGCLPPFPADVFMIPQYGYLTLNDGSQAVGRSSFYCLEYFPSQMLRTGNNFQFSYEFENVPFHSSYAHSQSLDRLMNPLIDQYLYYLSKTINGHDSPHKSGQNQQTLKFSVAGPSNMAVQGRNYIPGPSYRQQRVSTTVTQNNNSEFAWPGASSWALNGRNSLMNPGPAMASHKEGEDRFFPLSGSLIFGKQGTGRDNVDADKVMITNEEEIKTTNPVATESYGQVATNHQSAQAQAQTGWVQNQGILPGMVWQDRDVYLQGPIWAKIPHTDGNFHPSPLMGGFGMKHPPPQILIKNTPVPADPPTAFNKDKLNSFITQYSTGQVSVEIEWELQKENSKRWNPEIQYTSNYYKSNNVEFAVNTEGVYSEPRPIGTRYLTRNL
chain 2: TAPGKKRPVEQSPQEPDSSAGIGKSGAQPAKKRLNFGQTGDTESVPDPQPIGEPPAAPSGVGSLTMASGGGAPVADNNEGADGVGSSSGNWHCDSQWLGDRVITTSTRTWALPTYNNHLYKQISNSTSGGSSNDNAYFGYSTPWGYFDFNRFHCHFSPRDWQRLINNNWGFRPKRLNFKLFNIQVKEVTDNNGVKTIANNLTSTVQVFTDSDYQLPYVLGSAHEGCLPPFPADVFMIPQYGYLTLNDGSQAVGRSSFYCLEYFPSQMLRTGNNFQFSYEFENVPFHSSYAHSQSLDRLMNPLIDQYLYYLSKTINGHDSPHKSGQNQQTLKFSVAGPSNMAVQGRNYIPGPSYRQQRVSTTVTQNNNSEFAWPGASSWALNGRNSLMNPGPAMASHKEGEDRFFPLSGSLIFGKQGTGRDNVDADKVMITNEEEIKTTNPVATESYGQVATNHQSAQAQAQTGWVQNQGILPGMVWQDRDVYLQGPIWAKIPHTDGNFHPSPLMGGFGMKHPPPQILIKNTPVPADPPTAFNKDKLNSFITQYSTGQVSVEIEWELQKENSKRWNPEIQYTSNYYKSNNVEFAVNTEGVYSEPRPIGTRYLTRNL
chain 3: MASGGGAPVADNNEGADGVGSSSGNWHCDSQWLGDRVITTSTRTWALPTYNNHLYKQISNSTSGGSSNDNAYFGYSTPWGYFDFNRFHCHFSPRDWQRLINNNWGFRPKRLNFKLFNIQVKEVTDNNGVKTIANNLTSTVQVFTDSDYQLPYVLGSAHEGCLPPFPADVFMIPQYGYLTLNDGSQAVGRSSFYCLEYFPSQMLRTGNNFQFSYEFENVPFHSSYAHSQSLDRLMNPLIDQYLYYLSKTINGHDSPHKSGQNQQTLKFSVAGPSNMAVQGRNYIPGPSYRQQRVSTTVTQNNNSEFAWPGASSWALNGRNSLMNPGPAMASHKEGEDRFFPLSGSLIFGKQGTGRDNVDADKVMITNEEEIKTTNPVATESYGQVATNHQSAQAQAQTGWVQNQGILPGMVWQDRDVYLQGPIWAKIPHTDGNFHPSPLMGGFGMKHPPPQILIKNTPVPADPPTAFNKDKLNSFITQYSTGQVSVEIEWELQKENSKRWNPEIQYTSNYYKSNNVEFAVNTEGVYSEPRPIGTRYLTRNL
[1]
  fold change in viral gene expression (2^-ΔΔCT) relative to pCMV6 transfected cells: 5.92 fold
[2]
  luciferase activity, fold change relative to pCMV6 transfected HEK 293T cells (ALPL transfected cells): 44 fold
[3]
  luciferase activity, fold change relative to pCMV6 transfected HEK 293T cells (ALPL transfected cells): 166 fold
[4]
  fold change in luciferase activity relative to the pCMV6 control cells (cells transfected with human ALPL protein): 24 fold
[5]
  fold change in luciferase activity relative to the pCMV6 control cells (cells transfected with murine ALPL protein): 24 fold
[6]
  Kd: 32 nM and 26.8 nM and 47 nM and 52.3 nM
  kon: 39800 M⁻¹ s⁻¹ and 43600 M⁻¹ s⁻¹ and 39400 M⁻¹ s⁻¹ and 98000 M⁻¹ s⁻¹

B2: TTM-002: AAV9 capsid variant comprising HDSPHK (SEQ ID NO: 2) in loop IV (protein)
chain 1: B1 chain 1
chain 2: GHDSPHKSGQNQQT
ALPL
  transcytosis in MDCK cells that did not express ALPL: No transcytosis was observed
His-tagged ALPL
  rate of dissociation from ALPL, pH 7.4 vs 5.5: increased when the pH was decreased from 7.4 to 5.5

B3: TTM-001: AAV9 capsid variant comprising SPHSKA (SEQ ID NO: 941) in loop IV (protein)
chain 1: B1 chain 1 with H454S, D455G, K459S, S460K, G461A
chain 2: GSGSPHSKAQNQQT
[7]
  interaction with ALPL in cell binding array: a unique interaction with the TTM-001 capsid variant
